# * marks the point of attachment. 5FAM = O=C1OC2(c3ccc(O)cc3Oc3cc(O)ccc32)c2ccc(C(=O)*)cc21; Ahx = NCCCCCC(=O)O
# B1: 5-FAM-labeled POGO ligase peptide (FAM-PL) (peptide)
# peptide: {5FAM-Ahx}-SAVLQKKITDYFHPKK-NH2
# notes: also called fluorescein-labeled Pogo Ligase peptide; PL peptide
# Target: T1, N-terminal His-tag PCNA (recombinant (His)6-PCNA fusion protein; Proliferating Cell Nuclear Antigen) (Homo sapiens (Human), UniProt P12004 1-261)
# T1 construct: Expressed in E. coli BL21 (DE3) from vector pEV-L8, which carries an N-terminal His-tag and a TEV protease site; No tag cleavage is described; also called His-tagged PCNA; recombinant PCNA
# Experiment: fluorescence polarization; fixed FAM-PL (5 nM) titrated with two-fold increasing recombinant His-tagged PCNA
# Source text: [a]N-substituted side chains listed from N-terminus to most C-terminal [b]as determined by high resolution electrospray ionization or MALDI-TOF [c]based on dry mass recovery after HPLC purification After synthesis and purification, peptoids were screened in a fluorescence polarization (FP) assay to find ligands that disrupted the interaction between His-tagged PCNA and fluorescein-labeled Pogo Ligase peptide (FAM-PL) (Kontopidis, G., et al. Proc. Natl. Acad. Sci. U.S.A. 2005, 102 (6), 1871-1876). In the design of the assay, conditions were adopted from Pedley et al., 2016, to improve the dynamic range between bound and unbound FAM-PL. While an acceptable Z-score was determined using the original 10 nM peptide and 100 nM PCNA (FIG. 4), an improved dynamic range was established by adjusting the ligand and receptor concentrations. […]
# Increasing amounts of recombinant (His)_6-PCNA protein (SEQ ID NO: 3) were prepared in FP binding buffer (25 mM HEPES at pH 7.4, 10% glycerol, 0.01% Triton X-100), with an 11-step 2-fold dilution series, and a top concentration of 30 μM. […] Fluorescence polarization and resultant anisotropy were measured on a BioTek Synergy 4 Multi-Detection Microplate Reader using an excitation filter of 485 nm and an emission filter of 530 nm, each with a 20 nm band-pass.
# T1 sequence (P12004 other isoform, or with tags, fused parts or gaps limits assumed): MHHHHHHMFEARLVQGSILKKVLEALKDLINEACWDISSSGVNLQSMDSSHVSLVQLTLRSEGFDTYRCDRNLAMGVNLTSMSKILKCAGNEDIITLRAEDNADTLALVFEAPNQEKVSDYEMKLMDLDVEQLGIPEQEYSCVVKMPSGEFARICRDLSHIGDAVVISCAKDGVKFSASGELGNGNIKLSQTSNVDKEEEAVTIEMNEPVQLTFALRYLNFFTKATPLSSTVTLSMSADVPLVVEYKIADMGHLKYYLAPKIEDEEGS
binder,measurement,value
B1,Kd,107 nM

# From US10758588 (PURDUE RESEARCH FOUNDATION, dated 2020)
